The record followed here is patent publication US20050221426A1.

Some targets named below: Melanocortin 5 receptor (UniProt P33032); GLP1R (UniProt P43220); Melanocortin 1 receptor (UniProt Q01726); CRHR1 (UniProt P34998).
Common to all, as to assay: cell-based or functional assay
In experiment [1] the target is Vasoactive Intestinal Peptide 1 receptor (UniProt P32241).
Chain of Vasoactive Intestinal Peptide 1 receptor (P32241 31-457): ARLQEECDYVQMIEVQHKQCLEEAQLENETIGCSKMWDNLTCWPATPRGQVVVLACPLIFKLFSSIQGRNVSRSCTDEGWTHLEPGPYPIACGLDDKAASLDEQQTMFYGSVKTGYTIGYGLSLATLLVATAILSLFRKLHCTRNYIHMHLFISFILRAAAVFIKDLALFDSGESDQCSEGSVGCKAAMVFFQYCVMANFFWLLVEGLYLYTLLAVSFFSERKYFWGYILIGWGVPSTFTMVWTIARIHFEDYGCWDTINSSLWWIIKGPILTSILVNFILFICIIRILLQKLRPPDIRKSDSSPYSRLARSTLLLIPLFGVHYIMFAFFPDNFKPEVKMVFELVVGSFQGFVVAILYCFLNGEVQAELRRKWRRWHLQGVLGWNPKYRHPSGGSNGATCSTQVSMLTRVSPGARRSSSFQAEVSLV

Chain of Melanocortin 1 receptor (Q01726 whole entry): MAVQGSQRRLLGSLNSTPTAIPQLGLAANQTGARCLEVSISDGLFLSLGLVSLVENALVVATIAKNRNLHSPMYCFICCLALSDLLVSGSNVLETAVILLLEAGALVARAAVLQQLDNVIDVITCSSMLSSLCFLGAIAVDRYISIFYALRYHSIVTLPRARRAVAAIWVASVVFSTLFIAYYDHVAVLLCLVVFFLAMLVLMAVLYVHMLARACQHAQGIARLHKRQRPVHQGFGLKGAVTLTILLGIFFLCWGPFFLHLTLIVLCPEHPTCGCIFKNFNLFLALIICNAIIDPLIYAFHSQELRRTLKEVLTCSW
Chain of CRHR1 (P34998 24-415 limits assumed): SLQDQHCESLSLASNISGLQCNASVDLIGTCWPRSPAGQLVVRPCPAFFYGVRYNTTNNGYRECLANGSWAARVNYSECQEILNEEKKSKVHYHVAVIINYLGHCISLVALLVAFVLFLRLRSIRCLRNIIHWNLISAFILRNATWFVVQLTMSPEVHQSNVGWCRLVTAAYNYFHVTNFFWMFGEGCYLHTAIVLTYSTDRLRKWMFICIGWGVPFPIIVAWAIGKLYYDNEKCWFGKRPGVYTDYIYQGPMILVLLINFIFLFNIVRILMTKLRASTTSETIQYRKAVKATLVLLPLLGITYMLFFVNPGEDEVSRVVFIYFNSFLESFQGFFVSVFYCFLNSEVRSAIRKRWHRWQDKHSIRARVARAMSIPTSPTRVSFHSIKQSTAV
Chain of Melanocortin 5 receptor (P33032 whole entry): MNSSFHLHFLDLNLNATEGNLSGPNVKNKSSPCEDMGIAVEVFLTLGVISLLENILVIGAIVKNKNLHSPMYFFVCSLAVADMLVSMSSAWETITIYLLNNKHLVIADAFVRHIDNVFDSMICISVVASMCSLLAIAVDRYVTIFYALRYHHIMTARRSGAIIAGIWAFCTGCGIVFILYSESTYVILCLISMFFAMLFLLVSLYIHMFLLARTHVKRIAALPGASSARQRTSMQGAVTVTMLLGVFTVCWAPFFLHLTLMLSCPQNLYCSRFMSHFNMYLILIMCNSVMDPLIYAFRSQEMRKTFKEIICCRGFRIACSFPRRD
Chain of GLP1R (P43220 24-463 limits assumed): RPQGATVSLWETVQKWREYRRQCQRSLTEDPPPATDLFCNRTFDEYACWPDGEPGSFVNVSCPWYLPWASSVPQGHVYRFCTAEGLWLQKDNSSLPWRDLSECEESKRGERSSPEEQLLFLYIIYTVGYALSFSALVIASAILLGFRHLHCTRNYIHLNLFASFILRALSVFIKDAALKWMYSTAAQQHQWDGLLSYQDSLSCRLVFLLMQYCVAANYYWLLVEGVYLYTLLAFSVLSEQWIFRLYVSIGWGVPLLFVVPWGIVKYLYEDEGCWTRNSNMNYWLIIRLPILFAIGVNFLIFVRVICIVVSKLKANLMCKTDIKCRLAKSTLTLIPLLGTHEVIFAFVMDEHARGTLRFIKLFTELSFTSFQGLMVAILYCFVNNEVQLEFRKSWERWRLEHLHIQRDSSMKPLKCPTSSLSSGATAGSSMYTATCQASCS

“VIP (from UniProt P01282 125-152) (peptide)”: in experiment [1], the EC50 of cell response (CNG channel voltage dye assay; MDC dye) worked out at 0.0024 nM, the EC50 of cell response (CNG channel voltage dye assay; TB & H30602) worked out at 0.005 nM, the Fmax/Fb maximal response (CNG channel voltage dye assay; MDC dye) was determined as 4.9 and the Fmax/Fb maximal response (CNG channel voltage dye assay; TB & H30602) was determined as 5.

In the experiment with Melanocortin 5 receptor, “[Nle4-D-Phe7]α-MSH (from UniProt P01189 138-150) (peptide)” returned an EC50 of cell response (CNG channel voltage dye assay; MDC dye) of 0.0029 nM, an EC50 of cell response (CNG channel voltage dye assay; NR & H30602) of 0.0013 nM, an EC50 of cell response (CNG channel voltage dye assay; NY & H30602) of 950 nM and an Fmax/Fb maximal response (CNG channel voltage dye assay; MDC dye) of 3.6. In addition, in the experiment with Melanocortin 5 receptor, the Fmax/Fb maximal response (CNG channel voltage dye assay; NR & H30602) is 3.2 and the Fmax/Fb maximal response (CNG channel voltage dye assay; NY & H30602) was determined as 3.4.

In the experiment with GLP1R, GLP (peptide) yielded an EC50 of cell response (CNG channel voltage dye assay; NY & H30602) of 0.003 nM.

In the experiment with Melanocortin 1 receptor, “α-MSH (from UniProt P01189 138-150) (peptide)” returned an EC50 of cell response (CNG channel voltage dye assay; MDC dye) of 820 nM, an EC50 of cell response (CNG channel voltage dye assay; TB & H30602) of 770 nM, an Fmax/Fb maximal response (CNG channel voltage dye assay; MDC dye) of 5 and an Fmax/Fb maximal response (CNG channel voltage dye assay; TB & H30602) of 5.1.

As to SEEPPISLDLTFHLLREVLEMARAEQLAQQAHSNRKLMEII (peptide, UniProt P06850 154-194, looked up) [CRF], in the experiment with CRHR1, the EC50 of cell response (CNG channel voltage dye assay; MDC dye) turned out to be 0.028 nM, the EC50 of cell response (CNG channel voltage dye assay; NY & H30602) amounted to 0.028 nM, the Fmax/Fb maximal response (CNG channel voltage dye assay; MDC dye) worked out at 4.2 and the Fmax/Fb maximal response (CNG channel voltage dye assay; NY & H30602) was 4.3.
